Three molecules from PMC12401179, “Biophysical characterization and ion transport with cell‐based and proteoliposome reconstitution assays of invertebrate K^+‐Cl^− cotransporters” (FEBS Open Bio, 2025) can be followed below.

One assay concerns the target T1, DmKCC (Drosophila melanogaster, UniProt Q7KVH5).
T1 construct: gene kcc; full-length cDNA, N-terminal 8xHis and FLAG tags (no cleavage stated), Sf9 baculovirus expression, DDM/CHS Ni-NTA purified, reconstituted in azolectin proteoliposomes
T1 sequence (Q7KVH5 1-1028): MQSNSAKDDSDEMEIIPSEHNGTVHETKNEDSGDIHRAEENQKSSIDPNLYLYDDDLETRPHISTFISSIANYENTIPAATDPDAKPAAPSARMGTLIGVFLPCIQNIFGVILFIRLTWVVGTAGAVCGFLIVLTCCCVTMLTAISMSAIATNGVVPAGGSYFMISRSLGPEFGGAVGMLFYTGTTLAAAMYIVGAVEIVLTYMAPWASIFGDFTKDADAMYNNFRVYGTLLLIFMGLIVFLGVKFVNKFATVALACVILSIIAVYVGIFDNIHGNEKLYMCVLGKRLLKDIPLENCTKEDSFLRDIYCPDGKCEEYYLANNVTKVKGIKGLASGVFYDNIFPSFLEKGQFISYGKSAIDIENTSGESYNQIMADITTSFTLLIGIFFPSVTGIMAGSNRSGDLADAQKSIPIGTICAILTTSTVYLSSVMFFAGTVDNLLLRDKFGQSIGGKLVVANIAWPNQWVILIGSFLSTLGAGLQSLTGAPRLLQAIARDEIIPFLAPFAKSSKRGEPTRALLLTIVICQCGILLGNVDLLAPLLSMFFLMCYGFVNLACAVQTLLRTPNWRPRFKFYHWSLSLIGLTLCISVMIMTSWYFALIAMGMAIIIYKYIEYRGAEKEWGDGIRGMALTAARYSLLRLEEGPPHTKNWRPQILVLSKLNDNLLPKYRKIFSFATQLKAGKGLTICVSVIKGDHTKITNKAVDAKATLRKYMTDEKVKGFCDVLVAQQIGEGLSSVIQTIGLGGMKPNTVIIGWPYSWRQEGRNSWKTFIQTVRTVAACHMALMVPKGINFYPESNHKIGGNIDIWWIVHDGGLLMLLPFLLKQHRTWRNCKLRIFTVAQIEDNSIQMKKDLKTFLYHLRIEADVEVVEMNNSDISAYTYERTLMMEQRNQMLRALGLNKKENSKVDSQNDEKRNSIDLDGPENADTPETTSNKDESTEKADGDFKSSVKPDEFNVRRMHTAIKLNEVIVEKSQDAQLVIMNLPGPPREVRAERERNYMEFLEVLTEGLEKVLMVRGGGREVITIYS
The assay is described as follows: K+ influx into proteoliposomes, fluorescent K+ probe (ION Potassium Green-2 TMA+). Type of assay: biochemical.

The target of assay [1] is Drosophila melanogaster K+-Cl- cotransporter (DmKCC) variant B (Drosophila melanogaster). Kind of assay: SEC; Superdex 200 10/300 gel filtration in 20 mM HEPES pH 7.4, 150 mM NaCl, 50 mM KCl, 0.015% DDM, 0.003% CHS, 5% glycerol; elution profile compared with that of HvKCC, whose dimer was verified by SEC-MALLS. (SEC sorts molecules by how far they enter the pores of the column.)

The target in assay [2] is Hydra vulgaris K+-Cl- cotransporter (HvKCC) (Hydra vulgaris). The assay is described as follows: SEC-MALS; SEC-MALLS; protein at 1.0 mg/mL on Superdex 200 10/300 in 20 mM HEPES pH 7.4, 150 mM NaCl, 50 mM KCl, 0.015% DDM, 0.003% CHS, 5% glycerol; protein conjugate analysis (ASTRA 6); single measurement.

For orientation: IC50 means the concentration needed to halve the response being measured. A lower IC50 goes with greater potency. For orientation: stoichiometry N means the number of molecules, sites or subunits per partner or assembly.

Consider `O=S(=O)(O)c1cc(N=C=S)ccc1C=Cc1ccc(N=C=S)cc1S(=O)(=O)O` [DIDS, 4,4′‐diisothiocyano‐2,2′‐stilbenedisulfonic acid], for which the IC50 on DmKCC worked out at 25 nM.

“Drosophila melanogaster K+-Cl- cotransporter (DmKCC) variant B (natural protein)” showed a stoichiometry N in assay [1] of 2.

As to “Hydra vulgaris K+-Cl- cotransporter (HvKCC) (natural protein)”, the stoichiometry N in assay [2] stood at 2.
